B1: Arf-GAP with Rho-GAP domain, ANK repeat and PH domain-containing protein 3 (Mus musculus), Q8R5G7 (parent)
chain: MAAPQDLDIAVWLALVHLEQYADTFRRHGLATAGAAQHLGHEELRHLGISATGHRKRILRLLRAGSAEGFLDSHLDNTMEPTPSPAPDAQPPKPVPKPRTVFGLSNPATAQRPGLSPIFWDPEVSRNSECTQRSSPLLPSSSEQPSVPNTMEMMPNAIYFGLDLRGRAQAAQDVTPDSSQATVPTPAFRPTTGTVHIMDPGCLYYGVQPVGIPGASDRRDGRGVCQERAEHRQDLETREDAGYASLELPGDSILSLPTQDAETSDDLISPYASFSSTADRPVPLLSGWLDKLSPQGNYVFQRRFVQFNGRSLMYFGSDKDPFPKGVIPLTAIEMTRSSKDNKFQVITGQRVFVFRTESEAQRDLWCSTLQSCLKEQRLLGHPRPPHPPRPLRTGTLELRGHKAKVFAALIPGELALYKSEQAFSLGIGICFIELQGCSVRETKSRSFDLLTPHRCFSFTAESGGARQSWAAALQEAVTETLSDYEVAEKVWSNPANRHCADCRASRPDWAAVNLGVVICKQCAGQHRALGSGISKVQSLKLDTSVWSNEIVQLFIVLGNDRANCFWAGALPPGEGLHPDSAPGPRGEFISRKYKLGLFRKPHPRHPDHSQLLQALCAAMAGPNLLKNMAQLLCVETSEGEEPLSPSALNGSLLSLLPSDSPGVYNEVVVPATYRGFLYCGSISNKAGAPPLRRGRDAPPRLWCVLGAALEMFASESSPEPLSLLQPQDIVCLGVSPPPADPGDLDRFPFSFELILTGGRIQHFATDGADSLEAWISAVGKWFSPLSCHQLLGPGLLRMGRLWLRSPSHAGLAPGLWLSGFGLLRGDHLFLCPAPGPGPPAPEDMVHLRRLQEISVVSAADTPDKKEHLVLVETGRTLYLQGEGRLDFAAWNTAIGGAAGGGGTGLQEQQMSRGDIPIIVDACISFVTQHGLRLEGVYRKGGARARSLRLLAEFRRDARSVKLRPREHFVEDVTDTLKRFFRELDDPVTSARLLPRWREAAELSQKNQRLEKYKEVISCLPRVNRRTLATLIGHLYRVQKCASLNQMCTRNLALLFAPSVFQTDGRGEHEVRVLQELIDGYISVFDIDSDQAAQIDLEVSLITTWKDVQLSQAGDLIMEVYIEQQLPDNCVTLKVSPTLTAEELTNQVLEMRGAASGTDLWVTFEILEHGELERPLHPKEKVLEQALQWCQLPEPCSASLLLRKVSMAHAGCLFTGVRRESPRVGLLRCREEPPRLLGNRFQERFFLVRGRCLLLLKEKKSSKPEREWSLEGAKVYLGIRKKLKPPTLWGFTLILEKMHLCLSCMDEEEMWDWTTSILKAQHDDQQSVVLRRRSSSDLARQKFGTMPLLPIRGDDSGATLLSANQTLRRLHNRRTLSMFFPMKSPQGSVEEQDELEEPVYEEPVYEEVGAFPELTKDTTFSSTWEWSAKSDPSLTSQRSFDQPPLSKASMLGHEERIPDPPPGPPSKSSSQARGSLEEQLLQELNNLILRKGEPASCPESSSQPTSPQAPSPTSLPTPTPSLPTQPPCTSNPPSSQPLT

Variants of B1 are the subject of the assay. Conditions: with src_human SRC.
In the case of Y1399F;Y1404F, the “effect of a mutation on the interaction” value is reported as “decreasing interaction”.

The record behind these values is IntAct's records for PubMed 15546919.
